PMC2556791 (The Journal of Experimental Medicine, 2008)

Experiments:
[1] = target: huCCRL2-HA on L1.2 transfectants (human); test: radioligand binding
[2] = target: mCMKLR1-HA on L1.2 transfectants (mouse) (UniProt P97468); test: radioligand binding
[3] = target: mCCRL2 on freshly isolated mouse peritoneal mast cells (mouse (endogenous in peritoneal mast cells)) (UniProt O35457); test: flow cytometry on cells
[4] = target: T1, mCCRL2-HA on L1.2 transfectants (mouse, UniProt O35457 1-360); test: flow cytometry on cells
T1 sequence (looked up): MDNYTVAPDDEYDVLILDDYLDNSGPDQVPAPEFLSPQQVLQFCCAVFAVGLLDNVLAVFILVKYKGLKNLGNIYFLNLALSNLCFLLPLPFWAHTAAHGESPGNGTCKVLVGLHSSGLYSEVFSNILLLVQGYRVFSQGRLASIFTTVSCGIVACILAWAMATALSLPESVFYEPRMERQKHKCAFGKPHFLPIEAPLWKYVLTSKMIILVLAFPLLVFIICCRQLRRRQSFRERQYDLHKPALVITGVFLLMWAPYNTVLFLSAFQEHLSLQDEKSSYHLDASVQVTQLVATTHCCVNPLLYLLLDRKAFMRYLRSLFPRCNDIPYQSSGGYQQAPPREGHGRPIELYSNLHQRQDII

[5] = target: huCCRL2-HA on L1.2 transfectants (human); test: flow cytometry on cells
[6] = target: T2, mCMKLR1-HA on L1.2 transfectants (mouse, UniProt P97468 1-371); test: radioligand binding
T2 sequence (looked up): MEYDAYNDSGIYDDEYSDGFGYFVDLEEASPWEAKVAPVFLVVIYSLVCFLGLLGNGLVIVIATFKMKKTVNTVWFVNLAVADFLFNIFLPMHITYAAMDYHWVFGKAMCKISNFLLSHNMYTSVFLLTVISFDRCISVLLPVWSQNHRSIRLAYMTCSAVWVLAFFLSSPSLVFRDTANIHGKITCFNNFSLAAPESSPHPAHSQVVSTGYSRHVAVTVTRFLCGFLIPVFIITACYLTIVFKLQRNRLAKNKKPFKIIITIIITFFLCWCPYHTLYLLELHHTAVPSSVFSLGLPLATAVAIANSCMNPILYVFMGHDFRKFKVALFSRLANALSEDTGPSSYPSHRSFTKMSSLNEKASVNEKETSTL

[7] = target: T1, mCCRL2-HA on L1.2 transfectants; test: radioligand binding

## chemerin (unlabeled; form not specified) (from UniProt Q99969 21-157) (ligand)
[1]
  EC50: 0.2 nM
[2]
  EC50: 3.1 nM
[3]
  EC50: 21 nM

## C-terminal His8-tagged serum form human chemerin (NH2-ADPELTE……-COOH) (from UniProt Q99969 21-155) (ligand)
[2]
  EC50: 26.3 nM

B1: untagged serum form human chemerin (NH2-ADPELTE…FAPH-COOH) (ligand)
chain: ADPELTEAQRRGLQVALEEFHKHPPVQWAFQETSVESAVDTPFPAGIFVRLEFKLQQTSCRKRDWKKPECKVRPNGRKRKCLACIKLGSEDKVLGRLVHCPIETQVLREAEEHQETQCLRVQRAGEDPHSFYFPGQFAPH
[4]
  EC50: 45 nM
[5]
  EC50: 7 nM

## YFPGQFAFS [bioactive 9-mer carboxyl-terminal chemerin peptide (residues 149–157, YFPGQFAFS)]
[6]
  EC50: 26.2 nM

B2: 125I-chemerin (residues 21–148) (ligand, human, UniProt Q99969 21-148, looked up)
chain: ELTEAQRRGLQVALEEFHKHPPVQWAFQETSVESAVDTPFPAGIFVRLEFKLQQTSCRKRDWKKPECKVRPNGRKRKCLACIKLGSEDKVLGRLVHCPIETQVLREAEEHQETQCLRVQRAGEDPHSF
modifications: 125I (radioiodinated; specific activity 97 Ci/g)
[7]
  Kd: 1.6 nM
